Laboratory results taken from patent US20250114463A1, “LIVER-TARGETED DRUG AND USE THEREOF” (HANMI PHARM. CO., LTD., priority 2021, published 2025).
Changes are numbered by the printed parent chain. Bridges are numbered along the chain shown (N, C = ends). Where no end group is shown, it is not given here. [ ]: non-standard residue; d: D form. Aib = CC(C)(N)C(=O)O

B1: triple agonist of SEQ ID NO: 25 (peptide)
peptide: HXQGTFTSDCSKYLDERAAQDFVQWLLDGGPSSGAPPPS
HELM: PEPTIDE1{H.[Aib].Q.G.T.F.T.S.D.C.S.K.Y.L.D.E.R.A.A.Q.D.F.V.Q.W.L.L.D.G.G.P.S.S.G.A.P.P.P.S.[am]}$$$$V2.0; N-terminus assumed
SMILES: CC(C)C[C@H](NC(=O)[C@H](CC(C)C)NC(=O)[C@H](Cc1c[nH]c2ccccc12)NC(=O)[C@H](CCC(N)=O)NC(=O)[C@@H](NC(=O)[C@H](Cc1ccccc1)NC(=O)[C@H](CC(=O)O)NC(=O)[C@H](CCC(N)=O)NC(=O)[C@H](C)NC(=O)[C@H](C)NC(=O)[C@H](CCCNC(=N)N)NC(=O)[C@H](CCC(=O)O)NC(=O)[C@H](CC(=O)O)NC(=O)[C@H](CC(C)C)NC(=O)[C@H](Cc1ccc(O)cc1)NC(=O)[C@H](CCCCN)NC(=O)[C@H](CO)NC(=O)[C@H](CS)NC(=O)[C@H](CC(=O)O)NC(=O)[C@H](CO)NC(=O)[C@@H](NC(=O)[C@H](Cc1ccccc1)NC(=O)[C@@H](NC(=O)CNC(=O)[C@H](CCC(N)=O)NC(=O)C(C)(C)NC(=O)[C@@H](N)Cc1c[nH]cn1)[C@@H](C)O)[C@@H](C)O)C(C)C)C(=O)N[C@@H](CC(=O)O)C(=O)NCC(=O)NCC(=O)N1CCC[C@H]1C(=O)N[C@@H](CO)C(=O)N[C@@H](CO)C(=O)NCC(=O)N[C@@H](C)C(=O)N1CCC[C@H]1C(=O)N1CCC[C@H]1C(=O)N1CCC[C@H]1C(=O)N[C@@H](CO)C(N)=O
B2: triple agonist of SEQ ID NO: 26 (peptide)
peptide: B1 peptide with E16S
HELM: PEPTIDE1{H.[Aib].Q.G.T.F.T.S.D.C.S.K.Y.L.D.S.R.A.A.Q.D.F.V.Q.W.L.L.D.G.G.P.S.S.G.A.P.P.P.S.[am]}$$$$V2.0; N-terminus assumed
SMILES: CC(C)C[C@H](NC(=O)[C@H](CC(C)C)NC(=O)[C@H](Cc1c[nH]c2ccccc12)NC(=O)[C@H](CCC(N)=O)NC(=O)[C@@H](NC(=O)[C@H](Cc1ccccc1)NC(=O)[C@H](CC(=O)O)NC(=O)[C@H](CCC(N)=O)NC(=O)[C@H](C)NC(=O)[C@H](C)NC(=O)[C@H](CCCNC(=N)N)NC(=O)[C@H](CO)NC(=O)[C@H](CC(=O)O)NC(=O)[C@H](CC(C)C)NC(=O)[C@H](Cc1ccc(O)cc1)NC(=O)[C@H](CCCCN)NC(=O)[C@H](CO)NC(=O)[C@H](CS)NC(=O)[C@H](CC(=O)O)NC(=O)[C@H](CO)NC(=O)[C@@H](NC(=O)[C@H](Cc1ccccc1)NC(=O)[C@@H](NC(=O)CNC(=O)[C@H](CCC(N)=O)NC(=O)C(C)(C)NC(=O)[C@@H](N)Cc1c[nH]cn1)[C@@H](C)O)[C@@H](C)O)C(C)C)C(=O)N[C@@H](CC(=O)O)C(=O)NCC(=O)NCC(=O)N1CCC[C@H]1C(=O)N[C@@H](CO)C(=O)N[C@@H](CO)C(=O)NCC(=O)N[C@@H](C)C(=O)N1CCC[C@H]1C(=O)N1CCC[C@H]1C(=O)N1CCC[C@H]1C(=O)N[C@@H](CO)C(N)=O
B3: triple agonist of SEQ ID NO: 27 (peptide)
peptide: HXQGTFTSDYSKYLDERACQDFVQWLLDQGGPSSGAPPPS
HELM: PEPTIDE1{H.[Aib].Q.G.T.F.T.S.D.Y.S.K.Y.L.D.E.R.A.C.Q.D.F.V.Q.W.L.L.D.Q.G.G.P.S.S.G.A.P.P.P.S.[am]}$$$$V2.0; N-terminus assumed
SMILES: CC(C)C[C@H](NC(=O)[C@H](CC(C)C)NC(=O)[C@H](Cc1c[nH]c2ccccc12)NC(=O)[C@H](CCC(N)=O)NC(=O)[C@@H](NC(=O)[C@H](Cc1ccccc1)NC(=O)[C@H](CC(=O)O)NC(=O)[C@H](CCC(N)=O)NC(=O)[C@H](CS)NC(=O)[C@H](C)NC(=O)[C@H](CCCNC(=N)N)NC(=O)[C@H](CCC(=O)O)NC(=O)[C@H](CC(=O)O)NC(=O)[C@H](CC(C)C)NC(=O)[C@H](Cc1ccc(O)cc1)NC(=O)[C@H](CCCCN)NC(=O)[C@H](CO)NC(=O)[C@H](Cc1ccc(O)cc1)NC(=O)[C@H](CC(=O)O)NC(=O)[C@H](CO)NC(=O)[C@@H](NC(=O)[C@H](Cc1ccccc1)NC(=O)[C@@H](NC(=O)CNC(=O)[C@H](CCC(N)=O)NC(=O)C(C)(C)NC(=O)[C@@H](N)Cc1c[nH]cn1)[C@@H](C)O)[C@@H](C)O)C(C)C)C(=O)N[C@@H](CC(=O)O)C(=O)N[C@@H](CCC(N)=O)C(=O)NCC(=O)NCC(=O)N1CCC[C@H]1C(=O)N[C@@H](CO)C(=O)N[C@@H](CO)C(=O)NCC(=O)N[C@@H](C)C(=O)N1CCC[C@H]1C(=O)N1CCC[C@H]1C(=O)N1CCC[C@H]1C(=O)N[C@@H](CO)C(N)=O

The binders below were run against human GLP-1 receptor (human, UniProt P43220 24-463) (assay: cell-based or functional assay).

| Binder | in vitro Activity Compared to Native Peptide (%), vs GLP-1 [%] |
| --- | --- |
| Y[Aib]QGTFTSDYSKYLDECRAKEFVQWLLAQKGKKNDWKHNIT (bridge 16-20; not fully specified (C-terminus)) [triple agonist of SEQ ID NO: 23] | 4.01 |
| H[Aib]QGTFTSDVSSYLLGQAAKQFIAWLVKGGGPSSGAPPPSC-NH2 [triple agonist of SEQ ID NO: 3] | 1.8 |
| Y[Aib]QGTFTSDYSKYLDECRAKEFVQWLKNGGPSSGAPPPS (bridge 16-20; not fully specified (C-terminus)) [triple agonist of SEQ ID NO: 24] | 41.2 |
| B1 | 82.6 |
| B2 | 64.5 |
| B3 | 83.1 |
| H[Aib]QGTFTSDYSKYLDEKRAQEFVCWLLAQKGKKNDWKHNIT-NH2 [triple agonist of SEQ ID NO: 28] | 17.2 |
| H[Aib]QGTFTSDYSKYLDEKAAKEFVQWLLNTC (bridge 16-20; not fully specified (C-terminus)) [triple agonist of SEQ ID NO: 29] | 38.5 |
| H[Aib]QGTFTSDYSKYLDEKAQKEFVQWLLDTC (bridge 16-20; not fully specified (C-terminus)) [triple agonist of SEQ ID NO: 30] | 142 |
| H[Aib]QGTFTSDYSKYLDEKACKEFVQWLLAQ (bridge 16-20; not fully specified (C-terminus)) [triple agonist of SEQ ID NO: 31] | 135 |
| H[Aib]QGTFTSDYSKYLDEKACKDFVQWLLDGGPSSGAPPPS (bridge 16-20; not fully specified (C-terminus)) [triple agonist of SEQ ID NO: 32] | 151 |
| H[Aib]QGTFTSDYSIAMDEIHQKDFVNWLLAQKC (bridge 16-20; not fully specified (C-terminus)) [triple agonist of SEQ ID NO: 33] | 24.5 |

These binders were tested against human GCG receptor (human, UniProt P47871 26-477) (assay: cell-based or functional assay).
human GCG receptor, sequence (P47871 26-477): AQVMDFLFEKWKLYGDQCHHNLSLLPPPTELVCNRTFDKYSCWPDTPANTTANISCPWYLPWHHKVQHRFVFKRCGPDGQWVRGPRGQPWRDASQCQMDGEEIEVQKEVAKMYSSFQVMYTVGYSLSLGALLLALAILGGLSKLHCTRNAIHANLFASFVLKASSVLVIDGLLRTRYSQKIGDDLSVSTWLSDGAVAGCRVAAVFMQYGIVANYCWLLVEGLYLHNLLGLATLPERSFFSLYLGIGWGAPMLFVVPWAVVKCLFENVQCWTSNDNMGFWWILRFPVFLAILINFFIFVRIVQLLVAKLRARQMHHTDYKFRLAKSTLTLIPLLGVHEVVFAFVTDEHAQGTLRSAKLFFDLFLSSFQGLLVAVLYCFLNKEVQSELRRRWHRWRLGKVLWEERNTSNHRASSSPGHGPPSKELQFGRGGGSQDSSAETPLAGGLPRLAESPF

| Binder | in vitro Activity Compared to Native Peptide (%), vs Glucagon [%] |
| --- | --- |
| Y[Aib]QGTFTSDYSKYLDECRAKEFVQWLLAQKGKKNDWKHNIT (bridge 16-20; not fully specified (C-terminus)) [triple agonist of SEQ ID NO: 23] | 9.3 |
| H[Aib]QGTFTSDVSSYLLGQAAKQFIAWLVKGGGPSSGAPPPSC-NH2 [triple agonist of SEQ ID NO: 3] | < 0.1 |
| Y[Aib]QGTFTSDYSKYLDECRAKEFVQWLKNGGPSSGAPPPS (bridge 16-20; not fully specified (C-terminus)) [triple agonist of SEQ ID NO: 24] | 9.3 |
| B1 | 0.1 |
| B2 | 0.2 |
| B3 | 0.8 |
| H[Aib]QGTFTSDYSKYLDEKRAQEFVCWLLAQKGKKNDWKHNIT-NH2 [triple agonist of SEQ ID NO: 28] | 1.6 |
| H[Aib]QGTFTSDYSKYLDEKAAKEFVQWLLNTC (bridge 16-20; not fully specified (C-terminus)) [triple agonist of SEQ ID NO: 29] | 6 |
| H[Aib]QGTFTSDYSKYLDEKAQKEFVQWLLDTC (bridge 16-20; not fully specified (C-terminus)) [triple agonist of SEQ ID NO: 30] | 0.7 |
| H[Aib]QGTFTSDYSKYLDEKACKEFVQWLLAQ (bridge 16-20; not fully specified (C-terminus)) [triple agonist of SEQ ID NO: 31] | 2.2 |
| H[Aib]QGTFTSDYSKYLDEKACKDFVQWLLDGGPSSGAPPPS (bridge 16-20; not fully specified (C-terminus)) [triple agonist of SEQ ID NO: 32] | 1.7 |
| H[Aib]QGTFTSDYSIAMDEIHQKDFVNWLLAQKC (bridge 16-20; not fully specified (C-terminus)) [triple agonist of SEQ ID NO: 33] | < 0.1 |

The binders below were run against T1, human GIP receptor (human, UniProt P48546 22-466) (assay: cell-based or functional assay).
T1 sequence (looked up): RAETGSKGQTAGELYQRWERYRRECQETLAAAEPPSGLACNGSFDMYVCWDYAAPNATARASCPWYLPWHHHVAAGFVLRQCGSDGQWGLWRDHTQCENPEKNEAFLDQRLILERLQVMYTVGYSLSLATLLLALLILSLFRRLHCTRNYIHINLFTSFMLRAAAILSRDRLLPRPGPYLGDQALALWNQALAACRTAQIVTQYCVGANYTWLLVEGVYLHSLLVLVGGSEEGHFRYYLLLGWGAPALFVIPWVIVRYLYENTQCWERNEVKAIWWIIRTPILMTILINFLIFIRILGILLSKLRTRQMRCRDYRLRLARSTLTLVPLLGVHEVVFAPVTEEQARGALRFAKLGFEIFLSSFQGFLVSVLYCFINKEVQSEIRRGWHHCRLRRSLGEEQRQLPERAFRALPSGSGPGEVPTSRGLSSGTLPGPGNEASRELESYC

| Binder | in vitro Activity Compared to Native Peptide (%), vs GIP [%] |
| --- | --- |
| Y[Aib]QGTFTSDYSKYLDECRAKEFVQWLLAQKGKKNDWKHNIT (bridge 16-20; not fully specified (C-terminus)) [triple agonist of SEQ ID NO: 23] | < 0.1 |
| H[Aib]QGTFTSDVSSYLLGQAAKQFIAWLVKGGGPSSGAPPPSC-NH2 [triple agonist of SEQ ID NO: 3] | < 0.1 |
| Y[Aib]QGTFTSDYSKYLDECRAKEFVQWLKNGGPSSGAPPPS (bridge 16-20; not fully specified (C-terminus)) [triple agonist of SEQ ID NO: 24] | < 0.1 |
| B1 | < 0.1 |
| B2 | < 0.1 |
| B3 | 0.9 |
| H[Aib]QGTFTSDYSKYLDEKRAQEFVCWLLAQKGKKNDWKHNIT-NH2 [triple agonist of SEQ ID NO: 28] | < 0.1 |
| H[Aib]QGTFTSDYSKYLDEKAAKEFVQWLLNTC (bridge 16-20; not fully specified (C-terminus)) [triple agonist of SEQ ID NO: 29] | < 0.1 |
| H[Aib]QGTFTSDYSKYLDEKAQKEFVQWLLDTC (bridge 16-20; not fully specified (C-terminus)) [triple agonist of SEQ ID NO: 30] | 0.8 |
| H[Aib]QGTFTSDYSKYLDEKACKEFVQWLLAQ (bridge 16-20; not fully specified (C-terminus)) [triple agonist of SEQ ID NO: 31] | 2.4 |
| H[Aib]QGTFTSDYSKYLDEKACKDFVQWLLDGGPSSGAPPPS (bridge 16-20; not fully specified (C-terminus)) [triple agonist of SEQ ID NO: 32] | 8.8 |
| H[Aib]QGTFTSDYSIAMDEIHQKDFVNWLLAQKC (bridge 16-20; not fully specified (C-terminus)) [triple agonist of SEQ ID NO: 33] | 10.4 |
